Test results published in a protein production outcome set (Wang et al. 2014).

Experiment: label from the status in PepcDB records

Row | Sequence | protein production
1 | MAGIKVFGHPASTSTRRVLIALHEKNLDFELVHVELKDGEHKKEPFLSRNPFGQVPAFEDGDLKLFESRAITQYIAHRYENQGTNLLPADSKNIAQYAIMSIGIQVEAHQFDPVASKLAWEQVFKFNYGLNTDQAVVAEEEAKLAKVLDVYEARLKEFKYLAGETFTLTDLHHIPVIQYLLGTPTKKLFTERPRVNEWVAEITKRPASEKVL | failed
2 | MGHHHHHHSHGLCYDLCRFGAVVAEDGYYVDEKKCEGCAFCFNVCPERAIEMENVKTGDLYVSKTEWGYFVHARLKPGEENTGRLVTEVKNRAKEIAEESNAEFLIVDSAPGVGCPVMASLTGVDAAIIVTEPTVSGLSDMLRILELCEHFRIRPFVVVNKFDLNVNIASEIESYCSENGVEFAGRVPFDKAIPEQIANLNFPFSGKAADKMVEIWKKLRE | failed
3 | MSELTAFGHSLSSGYEVVVIKPQSLSDTTLIVQALRADKAVILNLEHLDVAEAQRISDFAAGSTYAINGHQSRLGDGVFLFTPNVINIQERTAVPTPAGLV | failed
4 | MPGFKSDLLIKRMDNEMETWILPTIPAFESTAEIAKIYRVRHQEAIEKSSDIYHFSGFIQEQIVCSLTLTVMGDCARIDDVATFPKYQKNGYATQLILSELQILKDTNISWCFLEASADGLNIYKKIG | not failed
5 | MPSFRITRKVRHSATQMYDLVADIERYPEFLPLCESLRVLRDAEGPNGTTVRVAEMGVGYKAIRERFTTRVSLDRENRKIVAEYIDGPFRHLENRWSFRDAEGGGCEVDFFITYEFKSRTLGLLMGTMFDRAFRKFTDAFEGRATAIYGVPA | failed
6 | MKKLLLTVIQIALLFIFARLINWVTALLHINIPGSIIGIVILFTLLHFNIIKLEWIELGAAWLLGELLLFFIPSAVGVIEYGDIMSKFGVSILLVVIISTFVVMVSTGTLTQLIAKRKEKKHTCSSEL | failed
7 | ANLYWFRADWFERPDLKKKFKDKYGYELGVPVNWSAYEDIAKFFSEDVKEIDGKKVFGHMDYGKKDPSLGWRFTDAWFSMAGSGDKGLPNGLPVDEWGIRVEDCHPVGSSITRGGDTNGPAAVFATQKYIDWLKAYAPPEAAGMTFSESGPVPSQGNVAQQIFWYTAFTADMTKPGLPVMNADGTPKWRMAPSPKGPYWKEGMKLGYQDVGSWTFLKSSDEKKRLAAWLYAQFVTSKSVSLKKTIVGLTPIRESDINSK | failed
8 | MDFVPKILGNVVLLLSAGLNWTAMRVFAGRRPHVPGLLAGAGIWLILCVVPAFYQSMPVRVSVYSLLAAAYGVLTLLEFWRSRQQLEVAYMPAVVLTLLHTMYYIVRAVVDQGVAMDQALKGYGAGVPLFSFMLFESMLYVIGIAYVTLCMVKERVELRFKAAAFCDALTGIGNRRAFMVNGERMLIECQRRCSPMALLLCDLDHFKRLDDAYGHQTGDQVLVAFSQVLAETLGTKDVYARIGGEEFACLLAATDEQAAVTVAERVRQAFARLPLLEPGLLSVSIGVVSSETRGYDLPRLLSLADEALYDAKHQGRNRVHTVSRSALELQPD | failed
9 | MILYVFLFFVGLLLLYLGAEGLIQGASSIALQYGIRPVILGLTVVALGTSMPEYLVNVFALISGESPLAIGNIIGSNISNVALILGACAVVLPLAVTPEVLRREYPVMLGVMVLFYLCALDGVIGARDGVLMVVLLSGLAAYVFYDAHRTTRGTVLESMEGELDAADPDLSTLAKAVYVIGGMGGLTLGAHLMVDNALAISDVLNIDHVVIGLTVVAIGTSLPELAASMVGTLKQEVDMTVGNVIGSNLLNVLFVVGTLAIAEPITVDPETIRLHFPVMLGFCALLVPLTWWDQKITRVEGAFMVIAFLGFMVFLYV | failed
10 | MNDFLFYLDIFGVIVFALSGALMAGRYQLDPFGVVVLASVTAVGGGTIRDVILQTPVFWVEKPYYLYVILATAILTIVLIRQPKRIPKRFLLIADALGLALFAVLGTQKALYLGAPIPVAVVLGTITGIAGGMIRDVLCNVIPMILREEIYALAAMLGGSLFIILHGLNWNDTNAMIVSISAALALRLAAIYWHVSLPAFHIVEKPKKEKGTTKIIEKK | failed
11 | MHIKYLWMCDCGGKKSQGVKWLPFILILVIAAGLWQLTPPSGLSAPAWHSAIIFVATIASIVAKVLPIGAVGIIGITVFALAYAAGDKTASGAITTALSELNSSLIWLIVVAFMIARGFIKTGLGRRIALQMIRLLGKRTLGLAYGLAFADLILSPAMPSNTARCGGVIYPIADSLARSFDSHPEDESRSKIGTFLITCIGNVNDVTAALFMTGYTGNLLAVKLAANAGVTLSWGSWFIAALLPCLVSFLIVPLLVYWLTRPEIKHTPDAPDLARKELAQMGSMTRGEWLMLATVGVLLVLWIFGSSLGVDATTASFVGLSILLLSGVLTWEDVKSEKGAWDTLIWFAALLMMANQLKKLGFTSWFGNLIGDSIGSTMHGTSWIIILLLLNAAYFYTHYFFASGNAQIAALYAVFLGVGLHLNIPAAPMALMLAFTSSLYCSLTQYTHARGPILFGAGYVPTGVWWRTGFIISLFNQAVFLTVGLAWWKVLGLY | failed
12 | MSQSSECARPHRRGFDFCASAVFLCTQRAQSVGGCAMRGCPLLLWRPETCQNPAPFCRGFAAQGFTAVSVVSRAVTKTTFFDENLIERVLWQFTMKEQRANAIPATCRYARYSANPTPTPRPVKINESDRTMNFEEKIATHYGHGNLTAAIRSGLQAQGITPEQASVEDLGPVDEFHIGGRAATVHFFDQIDLSETSKALDIGCGLGGAARYAAHSFGSQIEGIDLTPEYVETGGALCQWVGLSDKVNLSVASALSMPFESGDFDIAYMMHVGMNIEDKRALFKEVARVLKPGGTFAIYDIMRSNDEDLVYPVPWASSAETCCLAGPATYRAALEEGGFVVRQENDRRDFAIDFFEKMKKANAGQKSPPPLGLHVLMQQTTAEKIPNMIANLQAGRIKPVEIYAVKQ | failed
13 | MTLKGTAERWGWMSQALHWLIAVLILGLGIGGLIMGKLPKTPNYFWVYTAHKSIGISVLALAVLRLFWRLYAGAPKPIAGTPVWQERVANATHIMLYVLIFTIPLAGWLYDSARGLRTFYWFGLFEMPALVSPNETIRGVALEIHKLSFWALIGLVVLHAGAAFHHHLIQRDATLARMLPRNWFSSKS | failed
14 | MRKYLAEFLGTFMLVFLGTATVVIAKGDVLAIGLAFGLAITVSAYAFGGISGGHFNPAVTTAMLINRRIDAADAIGYIIAQIIGAIVASAAVKSFVSALGLSATLLGQTDFPKIGSGMAFFVEALVTFLFLMVILNVTSNDHGNADFAGLTIGVTLAFLIIVALNLTGGSLNPARSIGPAIFAGGSALSHLWVYILAPEVGAILAAFCARVMGSED | failed
15 | MNIQLSPLEARVIGCLIEKEVTTPDHYPLTLNSLTTACNQKSNREPVLNLSEAEVQDTVEGLIARRLVSDESSFNSRTSKYQHRFCNTEFGDLKLNQQELGLICCLLLRGAQTPGELRTRTNRLCTFTDVKETEAVLERLANRDSGALVVKLPREPGKRESRYHHLFCGEVDMAA | not failed
16 | MLISAIIGGVEYINLYRFPEIPLVGFTLIGVVLSIFLGFKNTACYDRWWEARKLWGVLIATSRHFDRDCRILTQARRERVIQHVIVFANVLRDRLRRQTANPTELIQTSGMSQQALTQLYQQNNAPQYTLSLIQWELLQALKEGEISDIIYAQMNKNVADLSVVQTGCDRIANTPIPFAYSVLLNRTVYFFCFMLPFSLGSLLGLATPLLVGILAYTFLGLDALSTEIEEPFGTQSNDLPLDAMVRSIEIELLGTLGKPTPPPIQAQDNNLL | failed
17 | MKTIDLADIQAFLYRESRLLDDKAWDAWLDCYRADAVFWMPSWDDADALVTDPQREISLIYYPNRQGLEDRVFRIKTERSSATVPDTRTSHNIANVERESADGDVHTVRFNWHTLSYRYKTVSSYFGMSRYAIDFSGDAPKIVSKYVVLKNDYINQLIDIYHI | not failed
18 | PFKESQARGLLQDNMANGYNGEDFESGLLELSKEIFPTNKYLYQDGQYLDKKTINAYLDPKYTKKEIDKMSEKEKKSKNANENLGLNPSHNGETDEEKIAKNSPAYLSNILEQDFYGNSDSKGKNIKGMTIGLAMNSVYYYKKEKDGETFSKDLSDKEIEKQGKQMASEMLSRLRENSDLKDIPIHFAIYKQSSQDSITPGEFIVGTTVEEGKTKINSWDNINEKAALIPSSTAADYDETLNNNFKQFNDNLQSYFSNFTQAVGKVKFVNKKAKQLTVDLPIDYYGQAETIGITQYVTEQAEKYFDKLDEYEIRIKDGNTPRALISKTKDDKEPQVHIYHN | not failed
19 | MLGEFKHYKTRLAHGGIPQEVQNLLLEYGVEIFAEMLVEGLSRIKRCTDEGRVLMSLDLQVLINGLQHFVPTKVKPKLQIVETFIKAYYLPETEYVHWARAHPEYTKAQVVGLVNLVATMKGWKRKTRLEVIEKIESASM | failed
20 | MAFIIDLLLLCCSAFMSSCEVAYFSLKPIDLQNIRERNHSSDIALSNLLDNSNQLLATILIGNNVINVAIVILSNYAIEQTFVFSSPIIGFLIQTILLTTVLLLFGEILPKVYARKNPLQYSRFSAAAMSVIYKILSPFSKLLVKSTGIVTRGISKKKYDMSVDELSKAVALTTTEGEPEEKEMINEIIKFYNKTACEIMVPRIDIVDVDLSWPFRKMLDFVVSSGYSRLPVSEGSEDNIKGVIYIKDLIPHMDKGDEFDWHPLIRKAYFVPENKRIDDLLEEFRANKVHVSIVVDEFGGTCGLITMEDILEEIVGEITDEYDEEELPFKVLGDGSYLFEGKTSLSDVRHYLDLPENAFGELGDEVDTLSGLFLEIKQELPHVGDTAVYEPFRFQVTQMDKRRIIEIKIFPFERTWEVE | failed
21 | DNKKIILEFSSPNTNKPLHVGHLRNDVIGESLSRILKAVGAKITKINLINDRGVHICKSMLAYKKFGNGITPEKAFKKGDHLIGDFYVKYNKYSQENENAEKEIQDLLLLWEQKDVSTIELWKKLNKWAIEGIKETYEITNTSFDKIYLESEIFKIGKNVVLEGLEKGFCYKREDGAICIDLPSDSDEKADTKVKQKVLIRSNGTSIYLTQDLGNIAVRTKEFNFEEMIYVVGSEQIQHFKSLFFVAEKLGLSKNKKLIHLSHGMVNLVDGKMKSREGNVIDADNLISNLIELIIPEMTQKIENKESAKKNALNIALGAIHYYLLKSAIHKDIVFNKKESLSFTGNSGPYIQYV | failed
22 | MLENSITYEKPLYIIKMNQRKKIVQIALPAMAENLLQMLMGVVDNYLVAQIGLVAVSGVSVANNIITIYQAIFIALGAAVSSLVAKSLGEDNQARVRFYQSESVAITLMLSVVLGFISFVFGSNMLHLLGTTDSVTQAGGIYLAIVGGLVVSLGLQTTLGAILRAQGKARLPMYVSFLTNIVNVILATTAIYIGHWGIVGVAAATVLSRFLGTFVLACQLPIKAILRSMRIKIDKAFLAIALPSAGERLMMRAGDVVIIAIIVKFGTAAVAGNAIGETLTQFNYMPGMGVATATVILVAHNLGQGKKKVIKEVVRESYIISTVFMLLVGACIFFGGRQLTYLFTENKAALQASLVVLFYSFIGGPATSGTLVFTAVWQGLGKAKLTFYATTVGMWLIRIVLGYYLGVSLNLGLAGVWLATLADNVFRWLFLYCLYRKYMQGFNNNLSSS | failed
23 | MKTSVKFETIFPLTTAPLIQCITNEITCESMANALLYIDAKPIMADDPREFPQMFQQTSALVLNLGHLSQEREQSLLAASDYARQVNKLTVVDLVGYGASDIRNEVGEKLVHNQPTVVKGNLSEMRTFCQLVSHGRGVDGSPLDQSEEAIEELIQALRQQTQKFPQTVFLATGIQDVLVSQEQVIVLQNGVPELDCFTGTGDLVGALVAALLGEGNAPMTAAVAAVSYFNLCGEKAKTKSQGLADFRQNTLNQLSLLMKEKDWFEAVKGRVL | not failed
